Results: publication PMC8260793, “A split protease-E. coli ClpXP system quantifies protein–protein interactions in Escherichia coli cells” (Communications Biology, 2021)

Key:
[1] = molecular target: Csy3 of Z. mobilis Type I-F CRISPR/Cas complex (Zymomonas mobilis); experiment: split reporter (BiFC, NanoBiT); SPEC profiling of CRISPR/Cas effectors and Cas3 / Cas2-3 mutants in E. coli cells; sfGFP fluorescence by flow cytometry; interaction intensity normalized to cells expressing wt HRV 3 C protease
[2] = molecular target: Csy4 of Z. mobilis Type I-F CRISPR/Cas complex (Zymomonas mobilis); experiment: as above
[3] = molecular target: Csy2 of Z. mobilis Type I-F CRISPR/Cas complex (Zymomonas mobilis); experiment: as above
[4] = molecular target: Csy1 of Z. mobilis Type I-F CRISPR/Cas complex (Zymomonas mobilis); experiment: as above
[5] = molecular target: Cas1 of Z. mobilis Type I-F CRISPR/Cas complex (Zymomonas mobilis); experiment: as above
[6] = molecular target: Cas1 of Z. mobilis Type I-F CRISPR/Cas complex; experiment: SPEC system (split protease-E. coli ClpXP) in E. coli cells; conditions: parent: 100; read off a plot
[7] = molecular target: Csy3 of Z. mobilis Type I-F CRISPR/Cas complex; experiment: as above; conditions: parent: 100; read off a plot
[8] = molecular target: Csy4 of Z. mobilis Type I-F CRISPR/Cas complex; experiment: as above; conditions: parent: 100; read off a plot
[9] = molecular target: Csy2 of Z. mobilis Type I-F CRISPR/Cas complex; experiment: as above; conditions: parent: 100; read off a plot
[10] = molecular target: T1, Cas5 of E. coli K12 Type I-E CRISPR/Cas complex (E. coli K12, UniProt Q46898 1-224); experiment: split reporter (BiFC, NanoBiT); SPEC profiling of CRISPR/Cas effectors and Cas3 / Cas2-3 mutants in E. coli cells; sfGFP fluorescence by flow cytometry; interaction intensity normalized to cells expressing wt HRV 3 C protease; conditions: partners not purified
T1 construct: Cas5, effector of the type I-E CRISPR/Cas complex of E. coli K12; source: E. coli BL21(DE3) or BL21(DE3)-SPEC, expressed in the cells (IPTG induction)
T1 sequence (looked up): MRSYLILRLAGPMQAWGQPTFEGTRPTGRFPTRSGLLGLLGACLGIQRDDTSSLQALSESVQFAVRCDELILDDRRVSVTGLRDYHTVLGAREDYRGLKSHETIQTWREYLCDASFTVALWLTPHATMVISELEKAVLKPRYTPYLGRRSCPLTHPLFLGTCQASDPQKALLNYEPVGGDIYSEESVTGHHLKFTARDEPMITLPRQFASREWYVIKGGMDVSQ

[11] = molecular target: T2, Cas2 of E. coli K12 Type I-E CRISPR/Cas complex (E. coli K12, UniProt P45956 1-94); experiment: as above; conditions: partners not purified
T2 construct: Cas2, effector of the type I-E CRISPR/Cas complex of E. coli K12; source: E. coli BL21(DE3) or BL21(DE3)-SPEC, expressed in the cells (IPTG induction)
T2 sequence (looked up): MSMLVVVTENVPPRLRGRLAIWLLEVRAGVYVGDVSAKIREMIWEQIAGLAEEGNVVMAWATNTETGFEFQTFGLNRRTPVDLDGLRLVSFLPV

[12] = molecular target: T3, Cas11 of E. coli K12 Type I-E CRISPR/Cas complex (E. coli K12, UniProt P76632 1-160); experiment: as above; conditions: partners not purified
T3 construct: Cas11, effector of the type I-E CRISPR/Cas complex of E. coli K12; source: E. coli BL21(DE3) or BL21(DE3)-SPEC, expressed in the cells (IPTG induction)
T3 sequence (looked up): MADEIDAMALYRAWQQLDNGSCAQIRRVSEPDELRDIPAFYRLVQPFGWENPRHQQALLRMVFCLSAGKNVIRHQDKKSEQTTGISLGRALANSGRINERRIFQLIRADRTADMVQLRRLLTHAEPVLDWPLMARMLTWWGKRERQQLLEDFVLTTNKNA

[13] = molecular target: T4, Cas7 of E. coli K12 Type I-E CRISPR/Cas complex (E. coli K12, UniProt Q46899 1-363); experiment: as above; conditions: partners not purified
T4 construct: Cas7, effector of the type I-E CRISPR/Cas complex of E. coli K12; source: E. coli BL21(DE3) or BL21(DE3)-SPEC, expressed in the cells (IPTG induction)
T4 sequence (looked up): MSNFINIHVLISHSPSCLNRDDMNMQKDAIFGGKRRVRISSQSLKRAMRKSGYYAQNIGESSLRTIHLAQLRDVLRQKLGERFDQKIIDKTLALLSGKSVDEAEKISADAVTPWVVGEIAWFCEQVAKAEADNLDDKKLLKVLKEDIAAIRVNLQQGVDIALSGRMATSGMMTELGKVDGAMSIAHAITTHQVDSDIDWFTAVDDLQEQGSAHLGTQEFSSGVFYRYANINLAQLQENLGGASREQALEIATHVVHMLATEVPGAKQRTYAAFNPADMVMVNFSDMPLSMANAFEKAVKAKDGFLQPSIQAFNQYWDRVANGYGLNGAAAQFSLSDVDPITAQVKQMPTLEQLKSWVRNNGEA

Cas1 of Z. mobilis Type I-F CRISPR/Cas complex (natural protein)
normalized interaction intensity [1]: 14% | normalized interaction intensity [2]: > 80% | normalized interaction intensity [3]: > 80%

Cas2-3 D124A (Z. mobilis Type I-F) (natural protein)
increase of the interaction over Cas2-3 wild type [4]: > 40%

Cas2-3 D608N (Z. mobilis Type I-F) (natural protein)
increase of the interaction over Cas2-3 wild type [4]: > 40%

Cas2-3 H123A (Z. mobilis Type I-F) (natural protein)
increase of the interaction over Cas2-3 wild type [4]: > 40%

Cas2-3 K127A (Z. mobilis Type I-F) (natural protein)
normalized interaction intensity [3]: 21% | normalized interaction intensity [4]: 10%

Cas2-3 K458N (Z. mobilis Type I-F) (natural protein)
increase of the interaction over Cas2-3 wild type [4]: > 40%

Cas2-3 S639A/T641A (Z. mobilis Type I-F) (natural protein)
increase of the interaction over Cas2-3 wild type [4]: > 40%

Cas2-3 of Z. mobilis Type I-F CRISPR/Cas complex (natural protein)
normalized interaction intensity [1]: > 80% | normalized interaction intensity [2]: > 80% | normalized interaction intensity [5]: 99% | normalized interaction intensity [3]: 88% | normalized interaction intensity [4]: 63%

Cas2-3 of Z. mobilis Type I-F CRISPR/Cas complex D124A
percent of parent [6]: 95% | percent of parent [7]: 110% | percent of parent [8]: 110%

Cas2-3 of Z. mobilis Type I-F CRISPR/Cas complex D608N
percent of parent [9]: 78% | percent of parent [7]: 110% | percent of parent [8]: 110%

Cas2-3 of Z. mobilis Type I-F CRISPR/Cas complex H123A
percent of parent [7]: 110% | percent of parent [8]: 110%

Cas2-3 of Z. mobilis Type I-F CRISPR/Cas complex K127A
percent of parent [7]: 110% | percent of parent [8]: 110%

Cas2-3 of Z. mobilis Type I-F CRISPR/Cas complex K458N
percent of parent [9]: 110% | percent of parent [6]: 97% | percent of parent [7]: 120% | percent of parent [8]: 110%

Cas2-3 of Z. mobilis Type I-F CRISPR/Cas complex S639A; T641A
percent of parent [9]: 110% | percent of parent [7]: 110% | percent of parent [8]: 110%

Csy1 of Z. mobilis Type I-F CRISPR/Cas complex (natural protein)
normalized interaction intensity [2]: > 80% | normalized interaction intensity [3]: > 80%

B1: Cas3 of E. coli K12 Type I-E CRISPR/Cas complex (natural protein, UniProt P38036 1-888, looked up)
chain: MEPFKYICHYWGKSSKSLTKGNDIHLLIYHCLDVAAVADCWWDQSVVLQNTFCRNEMLSKQRVKAWLLFFIALHDIGKFDIRFQYKSAESWLKLNPATPSLNGPSTQMCRKFNHGAAGLYWFNQDSLSEQSLGDFFSFFDAAPHPYESWFPWVEAVTGHHGFILHSQDQDKSRWEMPASLASYAAQDKQAREEWISVLEALFLTPAGLSINDIPPDCSSLLAGFCSLADWLGSWTTTNTFLFNEDAPSDINALRTYFQDRQQDASRVLELSGLVSNKRCYEGVHALLDNGYQPRQLQVLVDALPVAPGLTVIEAPTGSGKTETALAYAWKLIDQQIADSVIFALPTQATANAMLTRMEASASHLFSSPNLILAHGNSRFNHLFQSIKSRAITEQGQEEAWVQCCQWLSQSNKKVFLGQIGVCTIDQVLISVLPVKHRFIRGLGIGRSVLIVDEVHAYDTYMNGLLEAVLKAQADVGGSVILLSATLPMKQKQKLLDTYGLHTDPVENNSAYPLINWRGVNGAQRFDLLAHPEQLPPRFSIQPEPICLADMLPDLTMLERMIAAANAGAQVCLICNLVDVAQVCYQRLKELNNTQVDIDLFHARFTLNDRREKENRVISNFGKNGKRNVGRILVATQVVEQSLDVDFDWLITQHCPADLLFQRLGRLHRHHRKYRPAGFEIPVATILLPDGEGYGRHEHIYSNVRVMWRTQQHIEELNGASLFFPDAYRQWLDSIYDDAEMDEPEWVGNGMDKFESAECEKRFKARKVLQWAEEYSLQDNDETILAVTRDGEMSLPLLPYVQTSSGKQLLDGQVYEDLSHEQQYEALALNRVNVPFTWKRSFSEVVDEDGLLWLEGKQNLDGWVWQGNSIVITYTGDEGMTRVIPANPK
notes: Cas3, effector of the type I-E CRISPR/Cas complex of E. coli K12; source: E. coli BL21(DE3) or BL21(DE3)-SPEC, expressed in the cells (IPTG induction)
normalized interaction intensity [10]: > 80% | normalized interaction intensity [11]: 56%

B2: Cas1 of E. coli K12 Type I-E CRISPR/Cas complex (natural protein, UniProt Q46896 1-305, looked up)
chain: MTWLPLNPIPLKDRVSMIFLQYGQIDVIDGAFVLIDKTGIRTHIPVGSVACIMLEPGTRVSHAAVRLAAQVGTLLVWVGEAGVRVYASGQPGGARSDKLLYQAKLALDEDLRLKVVRKMFELRFGEPAPARRSVEQLRGIEGSRVRATYALLAKQYGVTWNGRRYDPKDWEKGDTINQCISAATSCLYGVTEAAILAAGYAPAIGFVHTGKPLSFVYDIADIIKFDTVVPKAFEIARRNPGEPDREVRLACRDIFRSSKTLAKLIPLIEDVLAAGEIQPPAPPEDAQPVAIPLPVSLGDAGHRSS
notes: Cas1, effector of the type I-E CRISPR/Cas complex of E. coli K12; source: E. coli BL21(DE3) or BL21(DE3)-SPEC, expressed in the cells (IPTG induction)
normalized interaction intensity [12]: > 80% | normalized interaction intensity [10]: > 80% | normalized interaction intensity [11]: 92%

B3: Cas6 of E. coli K12 Type I-E CRISPR/Cas complex (natural protein, UniProt Q46897 1-199, looked up)
chain: MYLSKVIIARAWSRDLYQLHQGLWHLFPNRPDAARDFLFHVEKRNTPEGCHVLLQSAQMPVSTAVATVIKTKQVEFQLQVGVPLYFRLRANPIKTILDNQKRLDSKGNIKRCRVPLIKEAEQIAWLQRKLGNAARVEDVHPISERPQYFSGDGKSGKIQTVCFEGVLTINDAPALIDLVQQGIGPAKSMGCGLLSLAPL
notes: Cas6, effector of the type I-E CRISPR/Cas complex of E. coli K12; source: E. coli BL21(DE3) or BL21(DE3)-SPEC, expressed in the cells (IPTG induction)
normalized interaction intensity [13]: > 80%
